Results published in PMC6149694, “Engineering the L-Arabinose Isomerase from Enterococcus Faecium for D-Tagatose Synthesis” (Molecules : A Journal of Synthetic Chemistry and Natural …, 2017).
Where “and” joins values, the source holds several entries; their conditions need not be identical. Identical values can stand only once.

B1: N-terminal His-tagged L-arabinose isomerase (L-AI) from Enterococcus faecium DBFIQ E36 (enzyme, UniProt Q3Y1E5 1-474, looked up)
chain: MLNIGEKEFWFVVGSQHLYGEEALREVKKHAQEMVDELNENGQLPYPIRLQELAVTADTITKIMKEVNYREEVAGVITWMHTFSPAKMWIRGTKLLQKPLLHLATQYNESIPWKTIDMDFMNLNQSAHGDREYGFINARLNKQNKIVVGYWKRPEIQKEIADWMDVAVAYNESFGIKVARFGDNMRNVGVTEGDKVEAQIQFGWTVDYFGIGDLVQVIDRVSDEEVDQLFEEYKELYTFDYGDYEEKTWEEHVKVQAQQEIGIRRFLEEGGYNAFTTNFEDLYGMKQLPGLAVQRLMAEGYGFAGEGDWKTAAIDRLLKIMARGKDTGFMEDYTYELASGQEAILESHMMEVDPTLAATKPRIVVSPLSMGDREDPARLVFDGKAGEGVVVSMADFGTHYKLLINEVEAFEPTTEAPNLPVARVLWKTKPNFHEGVHSWIQAGGGHHTVVSLNLTTDQIETWAKLVELETVVIR
notes: codon-optimised synthetic gene; the construct has 481 aa including the initial methionine (MW 55,036); also called N-His-L-AI; recombinant L-AI; not shown: His6, N-terminal, kept
B2: C-terminal His-tagged L-arabinose isomerase (L-AI) from Enterococcus faecium DBFIQ E36 (enzyme, UniProt Q3Y1E5 1-474, looked up)
chain: B1 chain
notes: codon-optimised synthetic gene; the construct has 482 aa including the initial methionine (MW 55,221); also called C-His-L-AI; recombinant L-AI; not shown: His6, C-terminal, kept

Target: the molecule itself
Assay: AUC; sedimentation velocity, 20 °C, 50 mM sodium phosphate buffer pH 7.0, absorbance at 285 nm, c(s) by SEDFIT; distributions shown for 0.43 g L^-1 N-His-L-AI and 0.3 g L^-1 C-His-L-AI; self-association, monomer to oligomers

| Protein | stoichiometry N |
| --- | --- |
| B1 | 4 and 6 |
| B2 | 3 and 6 |
